Test results as given in the supplement of paper PMC10567573.

B1: TRAF3IP2 (parent)
chain: FMEKRNQWLVSQLSAASPDTGHDS
B2: FAM50A (parent)
chain: KALEILRKDFSELRSAGVEQLMYI

Variants of: B1
Assay: protein stability index of a GFP-peptide fusion (GPS, HEK-293T) (PSI 1-6); higher = more stable
Conditions: c terminus: a fixed tail appended
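Note: lentivirally expressed fusions sorted by FACS into six bins by GFP to DsRed ratio, PSI derived from sequencing read proportions per bin multiplied by bin number.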

| Variant | protein stability index |
| --- | --- |
| FMEKRNQWLVSQLSAASPDTMHDS | 1.77 |
| FMEKRNQWLVSQLSAASPDTNHDS | 2.56 |
| FMEKRNQWLVSQLSAASPDTPHDS | 2.75 |
| FMEKRNQWLVSQLSAASPDTQHDS | 2.52 |
| FMEKRNQWLVSQLSAASPDTRHDS | 2.62 |
| FMEKRNQWLVSQLSAASPDTSHDS | 2.18 |
| FMEKRNQWLVSQLSAASPDTTHDS | 2.44 |
| FMEKRNQWLVSQLSAASPDTVHDS | 1.67 |
| FMEKRNQWLVSQLSAASPDTWHDS | 1.63 |
| FMEKRNQWLVSQLSAASPDTYHDS | 2.08 |
| FMEKRNQWLVSQLSAASPDTGADS | 3.18 |
| FMEKRNQWLVSQLSAASPDTGCDS | 2.8 |
| FMEKRNQWLVSQLSAASPDTGDDS | 2.87 |
| FMEKRNQWLVSQLSAASPDTGEDS | 3.38 |
| FMEKRNQWLVSQLSAASPDTGFDS | 2.4 |
| FMEKRNQWLVSQLSAASPDTGGDS | 2.01 |
| FMEKRNQWLVSQLSAASPDTGIDS | 1.95 |
| FMEKRNQWLVSQLSAASPDTGKDS | 2.39 |
| FMEKRNQWLVSQLSAASPDTGLDS | 2.29 |
| FMEKRNQWLVSQLSAASPDTGMDS | 2.15 |
| FMEKRNQWLVSQLSAASPDTGNDS | 2.59 |
| FMEKRNQWLVSQLSAASPDTGPDS | 2.94 |

| Variant | protein stability index |
| --- | --- |
| FMEKRNQWLVSQLSAASPDTGQDS | 2.75 |
| FMEKRNQWLVSQLSAASPDTGRDS | 1.82 |
| FMEKRNQWLVSQLSAASPDTGSDS | 2.33 |
| FMEKRNQWLVSQLSAASPDTGTDS | 3.27 |
| FMEKRNQWLVSQLSAASPDTGWDS | 2.05 |
| FMEKRNQWLVSQLSAASPDTGYDS | 1.94 |
| FMEKRNQWLVSQLSAASPDTGHAS | 2.49 |
| FMEKRNQWLVSQLSAASPDTGHCS | 1.73 |
| FMEKRNQWLVSQLSAASPDTGHES | 2.49 |
| FMEKRNQWLVSQLSAASPDTGHFS | 2.22 |
| FMEKRNQWLVSQLSAASPDTGHGS | 2.11 |
| FMEKRNQWLVSQLSAASPDTGHHS | 2.47 |
| FMEKRNQWLVSQLSAASPDTGHIS | 1.65 |
| FMEKRNQWLVSQLSAASPDTGHKS | 1.6 |
| FMEKRNQWLVSQLSAASPDTGHLS | 1.81 |
| FMEKRNQWLVSQLSAASPDTGHMS | 2.12 |
| FMEKRNQWLVSQLSAASPDTGHNS | 2.08 |
| FMEKRNQWLVSQLSAASPDTGHPS | 2.21 |
| FMEKRNQWLVSQLSAASPDTGHQS | 2.44 |
| FMEKRNQWLVSQLSAASPDTGHRS | 2.07 |
| FMEKRNQWLVSQLSAASPDTGHSS | 2.69 |
| FMEKRNQWLVSQLSAASPDTGHTS | 2.57 |

| Variant | protein stability index |
| --- | --- |
| FMEKRNQWLVSQLSAASPDTGHVS | 2.71 |
| FMEKRNQWLVSQLSAASPDTGHYS | 1.75 |
| FMEKRNQWLVSQLSAASPDTGHDA | 2.4 |
| FMEKRNQWLVSQLSAASPDTGHDC | 2.61 |
| FMEKRNQWLVSQLSAASPDTGHDD | 2.45 |
| FMEKRNQWLVSQLSAASPDTGHDE | 3.68 |
| FMEKRNQWLVSQLSAASPDTGHDF | 2.15 |
| FMEKRNQWLVSQLSAASPDTGHDG | 3.22 |
| FMEKRNQWLVSQLSAASPDTGHDH | 2.26 |
| FMEKRNQWLVSQLSAASPDTGHDI | 2.1 |
| FMEKRNQWLVSQLSAASPDTGHDK | 1.81 |
| FMEKRNQWLVSQLSAASPDTGHDL | 2.22 |
| FMEKRNQWLVSQLSAASPDTGHDM | 2.09 |
| FMEKRNQWLVSQLSAASPDTGHDN | 2.68 |
| FMEKRNQWLVSQLSAASPDTGHDP | 2.68 |
| FMEKRNQWLVSQLSAASPDTGHDQ | 2.85 |
| FMEKRNQWLVSQLSAASPDTGHDR | 2.48 |
| FMEKRNQWLVSQLSAASPDTGHDT | 2.41 |
| FMEKRNQWLVSQLSAASPDTGHDV | 2.29 |
| FMEKRNQWLVSQLSAASPDTGHDW | 2 |
| FMEKRNQWLVSQLSAASPDTGHDY | 2.04 |

Variants of: B2
Assay: as above
Conditions: c terminus: a fixed tail appended

| Variant | protein stability index |
| --- | --- |
| AALEILRKDFSELRSAGVEQLMYI | 3.07 |
| DALEILRKDFSELRSAGVEQLMYI | 1.28 |
| EALEILRKDFSELRSAGVEQLMYI | 1.88 |
| MALEILRKDFSELRSAGVEQLMYI | 3.33 |
| NALEILRKDFSELRSAGVEQLMYI | 1.86 |
| PALEILRKDFSELRSAGVEQLMYI | 2.04 |
| QALEILRKDFSELRSAGVEQLMYI | 1.78 |
| TALEILRKDFSELRSAGVEQLMYI | 1.91 |
| VALEILRKDFSELRSAGVEQLMYI | 1.18 |
| YALEILRKDFSELRSAGVEQLMYI | 3.42 |
| KCLEILRKDFSELRSAGVEQLMYI | 4.79 |
| KDLEILRKDFSELRSAGVEQLMYI | 3.3 |
| KFLEILRKDFSELRSAGVEQLMYI | 2.4 |
| KHLEILRKDFSELRSAGVEQLMYI | 1.48 |
| KKLEILRKDFSELRSAGVEQLMYI | 1.75 |
| KLLEILRKDFSELRSAGVEQLMYI | 1.15 |
| KNLEILRKDFSELRSAGVEQLMYI | 1.04 |
| KPLEILRKDFSELRSAGVEQLMYI | 1.95 |
| KRLEILRKDFSELRSAGVEQLMYI | 3.76 |
| KSLEILRKDFSELRSAGVEQLMYI | 2.96 |
| KVLEILRKDFSELRSAGVEQLMYI | 1.49 |
| KWLEILRKDFSELRSAGVEQLMYI | 2.73 |
| KACEILRKDFSELRSAGVEQLMYI | 3.15 |
| KADEILRKDFSELRSAGVEQLMYI | 1.73 |
| KAHEILRKDFSELRSAGVEQLMYI | 1.57 |
| KAKEILRKDFSELRSAGVEQLMYI | 2.58 |
| KAMEILRKDFSELRSAGVEQLMYI | 2.02 |
| KANEILRKDFSELRSAGVEQLMYI | 1.5 |
| KAPEILRKDFSELRSAGVEQLMYI | 2.77 |
